Residue numbers refer to the chain shown, from its start.
B1: 32-TC1.2-I-F07-6 (scFv)
scFv: QVQLVQSGAEVKKPGESLKISCKGSGYSFTSYWIGWVRQMPGKGLEWMGIIYPGESDTRYSPSFQGQVTISADKSISTAYLQWSSLKASDTAMYYCARRNYYDRSGYVDAFDIWGQGTMVTVSSGGSGGSGGSGGSSSELTQDPAVSVALGQTVRITCQGDSLRRFYASWHQQKPGQAPIVVMYAENNRPSGIPDRFSGSSSGNTASLTITGAQAEDEATYYCNSRDSSGNRHVFGTGTKLTVL
notes: His-tagged
B2: 16-TC4-I-C11 (scFv)
scFv: QVQLVQSGAEVKKPGSSVKVSCKASGGTFSSYAISWVRQAPGQGLEWMGWISAYNGNTNYAQKLQGRVTMTTDTSTSTAYMELRSLRSDDTAVYYCARVTPPGWLGNMDVWGKGTTVTVSSGGSGGSGGSGGSSYELMQSPSVSVAPGQTARITCGGRDIGSKSVHWYQQKPGQAPVLVVYDDSDRPSGIPERLSGSNFGNEATLTISRVEAGDEGDYFCQVWDSSTDVVFGGGTKVTVL
notes: His-tagged
B3: 37-TC7-VII-D05 (scFv)
scFv: QMQLVQSGGGVVQPGRSLRLSCAASGFTFSSYAMHWVRQAPGKGLEWVAVISYDGSNKYYADSVKGRFTISRDNSKNTLYLQMNSLRAEDTAVYYCARDALWDTATFDYWGQGTLVTVSSGGSGGSGGSGGSSSELTQDPAVSVALGQTVRITCQGDSLRSYYASWYQQKPGQAPVLVIYGKNNRPSGIPDRFSGSSSGNTASLTITGAQAEDEADYYCNSRDSSGNPWVFGGGTKLTVL
notes: His-tagged
B4: 4-TC4-I-G08 (scFv)
scFv: QVQLVQSGGGVVQPGRSLRLSCAASGFTFSSYAMHWVRQAPGKGLEWVAVISYDGSNKYYADSVKGRFTISRDNAKNSLYLQMNSLRDEDTAVYYCARDESFDYGVDVWGKGTTVTVSSGGSGGSGGSGGSSSELTQDPAVSVALGQTVRITCQGDSLRSYYASWYQQKPGQAPVLVIYGKNNRPSGIPDRFSGSSSGNTASLTITGAQAEDEADYYCNSRDSSGNHLVVFGGGTKLTVL
notes: His-tagged
B5: 42-TC4-VII-G08 (scFv)
scFv: B4 scFv with A75S, S78T, D88A, E100L, F102Y, V106F, V108Y, K111Q, T114L, L237V
notes: His-tagged
B6: 49-TC4-XVI-F01 (scFv)
scFv: QVQLVESGGGVVQPGRSLRLSCAASGFTFSSYAMHWVRQAPGKGLEWVAVISYDGSNKYYADSVKGRFTISRDNSKNTLYLQMNSLRAEDTAVYYCARDSTQDYGMDVWGQGTMVTVSSGGSGGSGGSGGSSSELTQDPAVSVALGQTVRITCQGDSLRNYYASWYQQKPGQAPVLVFYGKNNRPSGIPDRFSGSSSGNTASLTITGAQAEDEADYYCNSRDSSGNHLVVFGGGTKLTVL
notes: His-tagged
B7: 39-TC6-IV-B08 (scFv)
scFv: QVQLVESGGGVVQPGGSLRLSCAASGFTFSSYAMHWVRQAPGKGLEWVAVISYDGSNKYYADSVKGRFTISRDNSKNTLYLQMNSLRAEDTAVYYCARDGHPYYYGMDVWGQGTTVTVSSGGSGGSGGSGGSQSALTQPASVSGSPGQSITISCTGTSSDVGDYNYVSWYQHHPGKAPKLMIYDVSNRPSGVSNRFSGSKSGNTASLTISGLQAEDEADYYCGSYTGSDTWVFGGGTKVTVL
notes: His-tagged; also called 1885

target: T1, CD70 on cells (CHO-CD70, JVM-3, U266, Raji, THP-1, T cells) (human, UniProt P32970 1-193); experiment: 1.25 µg/mL scFv on U266 cells
T1 construct: whole, on cells; also called cell-surface CD70
T1 sequence (looked up): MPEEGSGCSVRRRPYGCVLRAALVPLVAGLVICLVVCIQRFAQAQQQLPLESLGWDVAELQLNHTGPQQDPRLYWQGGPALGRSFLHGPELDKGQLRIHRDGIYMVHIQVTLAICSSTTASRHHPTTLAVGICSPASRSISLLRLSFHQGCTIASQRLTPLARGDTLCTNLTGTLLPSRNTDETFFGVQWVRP
Outline: (§1)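 Tumour cell lines with high CD70 expression (CHO-CD70, JVM3, U266) or low CD70 expression (CHO WT, K562) were used to assess cell binding of human scFv antibodies, with results recorded per line. These antibodies had been selected by panning a naïve human library on the CD70 extracellular domain (aa39-193).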

Binder	cell binding
B1	20700
B2	51000
B3	15900
B4	23500
B5	13100
B6	2980
B7	35900

target: T1, CD70 on cells (CHO-CD70, JVM-3, U266, …); experiment: 1.25 µg/mL scFv on CHO-CD70 cells
Outline: as §1

Binder	cell binding
B1	553000
B2	660000
B3	111000
B4	387000
B5	364000
B6	134000
B7	52200

target: T2, human CD70, recombinant, N-terminally biotinylated (residues 39-193) (human, UniProt P32970 39-193, N-terminal biotin); experiment: SPR
T2 construct: range 39-193; the same entry is used there; also called biotinylated human CD70; CD70 biotin
T2 sequence (looked up): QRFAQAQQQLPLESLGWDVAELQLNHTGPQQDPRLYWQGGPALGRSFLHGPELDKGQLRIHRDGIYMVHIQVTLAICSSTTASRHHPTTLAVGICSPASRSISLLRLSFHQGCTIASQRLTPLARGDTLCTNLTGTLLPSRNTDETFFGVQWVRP
Outline: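 Human scFv antibodies came from panning a naïve human library against the CD70 extracellular domain (aa39-193). Their affinity (Kd) for recombinant, N-terminally biotinylated human CD70 was measured by surface plasmon resonance (SPR) analysis.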

Binder	Kd [µM]
B1	0.00741
B2	0.0402
B3	5.64
B4	1.41
B5	0.179
B6	1.06
B7	2.89

target: T2, human CD70, recombinant, N-terminally …; experiment: CD27 blocking ELISA, 3 µM scFv, anti-His/HRP; also: unit not given here
Method: Human scFv antibodies binding CD70 were generated by panning a naïve human library with the extracellular domain (aa39-193) of CD70. 53 antibodies were identified. The ability of CD27 to block CD70 binding of the identified antibodies was measured by ELISA using two different assays. In the first assay, CD27 and his-tagged scFv anti-CD70 binders were simultaneously added to surface bound CD70, and the ability of the scFv binders to bind CD70 was detected with anti-His HRP. In the second assay, plate-bound CD70 was pre-incubated with CD27 for 30 minutes, and then additional CD27 and the his-tagged scFv anti-CD70 binder was added. The ability of the scFv binders to bind CD70 was detected with anti-His HRP. FIG. 34 is a schematic of the two different CD27 blocking assays. CD70 affinity was also measured by SPR analysis. scFv antibodies were also tested for their ability to bind tumor cell lines with high (CHO-CD70, JVM3, and U266) and low levels (CHO WT and K562 of CD70 expression. Results for 39 antibodies are shown in Table 1 below.

Binder	anti His/HRP
B1	2.42
B2	2.1
B3	2.28
B4	2.29
B5	2.34
B6	2.12
B7	2.97

target: T1, CD70 on cells (CHO-CD70, JVM-3, U266, …); experiment: 1.25 µg/mL scFv on JVM-3 cells
Outline: as §1

Binder	cell binding
B1	57300
B2	103000
B3	11000
B4	34000
B5	33900
B6	5410
B7	25300

target: T2, human CD70, recombinant, N-terminally …; experiment: CD27 blocking ELISA, 3 µM scFv, strep/HRP

Binder	strep/HRP
B1	0.113
B2	1.43
B3	0.655
B4	1.03
B5	1.11
B6	1.29
B7	0.268
